Assay results reported in the supplement of paper PMC7877785.
± gives the uncertainty stated by the source.

Assay: self-splicing fitness, log relative to wild type (ln ratio); higher = more splicing; Tetrahymena group I intron in knt gene, E. coli kanamycin selection, DiMSum; sequences stand for … in CUCUCU…GGAGGGAAAAGUUAUCAGGCAUGCACCUGGUAGCUAGUCUUUAAACCAAUAGAUUGCAUCGGUUUAAAAGGCAAGACCGUCAAAUUGCGGGAAAGGGGUCAACAGCCGUUCAGUACCAAGUCUCAGGGGAAACUUUGAGAUGGCCUUGCAAAGGGUAUGGUAAUAAGCUGACGGACAUGGUCCUAACCACGCAGCCAAGUCCUAAGUCAACAGAUCUUCUGUUGAUAUGGAUGCAGUUCACAGACUAAAUGUCGGUCGGGGAAGAUGUAUUCUUCUCAUAAGAUAUAGUCGGACCUCUCCUUAAUGGGAGCUAGCGGAUGAAGUGAUGCAACACUGGAGCCGCUGGGAACUAAUUUGUAUGCGAAAGUAUAUUGAUUAGUUUUGGAGUACUCGUGGUCG
In short: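 Colonies from six replicate transformations of E. coli BL21(DE3) were pooled and amplicon-sequenced on an Illumina HiSeq 2500. The library placed an intron with all eight P1ex-region nucleotides randomised inside the knt kanamycin-resistance gene on pET-22b(+), and cells grew overnight at 37°C or 30°C on LB agar with or without 25 μg/mL kanamycin (plus 100 μg/mL carbenicillin, 50 μM IPTG, 0.2% rhamnose). Fitness is the DiMSum error-weighted combination of wild-type-normalised replicate fold changes, kanamycin versus none.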

Row | Sequence | self-splicing fitness (ln) (30 °C) | self-splicing fitness (ln) (37 °C)
1 | UAGAAGCAAUAUUACGGAAU | -2.11 ± 0.18 | -2.38 ± 0.36
2 | UAGAAGCAAUAUUACGGACU | -1.29 ± 0.13 | 0.474 ± 0.11
3 | UAGAAGCAAUAUUACGGAGG | -3.39 ± 0.3 | -0.889 ± 0.27
4 | UAGAAGCAAUAUUACGGCUU | -3.59 ± 0.48 | -1.67 ± 0.23
5 | UAGAAGCAAUAUUACGGGCU | -3.1 ± 0.23 | -3.1 ± 0.26
6 | UAGAAGCAAUAUUACGUACG | -0.237 ± 0.1 | -0.721 ± 0.13
7 | UAGAAGCAAUAUUACGUAGG | -1.78 ± 0.093 | -1.61 ± 0.16
8 | UAGAAGCAAUAUUACGUAGU | -3.71 ± 0.25 | -2.01 ± 0.22
9 | UAGAAGCAAUAUUACGUAUU | -2.3 ± 0.087 | -2.22 ± 0.12
10 | UAGAAGCAAUAUUACGUGUU | -3.84 ± 0.14 | -2.42 ± 0.11
11 | UAGAAGCAAUAUUACGUUAG | -2.51 ± 0.1 | -0.338 ± 0.093
12 | UAGAAGCAAUAUUACGUUAU | -3.81 ± 0.14 | -2.76 ± 0.12
13 | UAGAAGCAAUAUUACGUUCA | -0.483 ± 0.063 | 0.196 ± 0.082
14 | UAGCAGCAAUAUUACGACAU | -1.604 ± 0.013 | -0.682 ± 0.033
15 | UAGCAGCAAUAUUACGACCA | -0.457 ± 0.12 | 0.838 ± 0.17
16 | UAGCAGCAAUAUUACGACUA | 0.282 ± 0.1 | 0.568 ± 0.13
17 | UAGCAGCAAUAUUACGAGAA | -2.19 ± 0.23 | -0.949 ± 0.18
18 | UAGCAGCAAUAUUACGAGGA | -3.39 ± 0.17 | -2.06 ± 0.13
19 | UAGCAGCAAUAUUACGAGGC | – | -3.43 ± 0.31
20 | UAGCAGCAAUAUUACGCAGC | -2.6 ± 0.22 | -1.75 ± 0.19
21 | UAGCAGCAAUAUUACGCCGU | -2.13 ± 0.13 | -1.24 ± 0.15
22 | UAGCAGCAAUAUUACGCCUU | -0.751 ± 0.078 | -0.21 ± 0.13
23 | UAGCAGCAAUAUUACGCUAC | -2.76 ± 0.32 | -2.13 ± 0.44
24 | UAGCAGCAAUAUUACGCUAG | -2.94 ± 0.12 | -1.96 ± 0.17
25 | UAGCAGCAAUAUUACGCUUU | -1.18 ± 0.12 | -0.753 ± 0.16

Row | Sequence | self-splicing fitness (ln) (30 °C) | self-splicing fitness (ln) (37 °C)
26 | UAGCAGCAAUAUUACGGAGG | -3.29 ± 0.15 | -2.6 ± 0.22
27 | UAGCAGCAAUAUUACGGAUC | -3.34 ± 0.21 | -1.4 ± 0.2
28 | UAGCAGCAAUAUUACGGCAA | -0.772 ± 0.16 | 0.622 ± 0.19
29 | UAGCAGCAAUAUUACGGGGG | -3.44 ± 0.29 | -2.98 ± 0.29
30 | UAGCAGCAAUAUUACGGGUG | -0.481 ± 0.058 | -0.431 ± 0.075
31 | UAGCAGCAAUAUUACGGGUU | -3.82 ± 0.21 | -1.86 ± 0.16
32 | UAGCAGCAAUAUUACGGUAG | -1.07 ± 0.051 | -0.873 ± 0.067
33 | UAGCAGCAAUAUUACGGUGC | -2.2 ± 0.22 | -3.51 ± 0.42
34 | UAGCAGCAAUAUUACGGUUC | -3.12 ± 0.1 | -1.89 ± 0.091
35 | UAGCAGCAAUAUUACGUAGG | -1.62 ± 0.082 | -1.35 ± 0.1
36 | UAGCAGCAAUAUUACGUGGC | -4.18 ± 0.26 | -2.12 ± 0.21
37 | UAGCAGCAAUAUUACGUGUC | -3.39 ± 0.15 | -2.2 ± 0.12
38 | UAGCAGCAAUAUUACGUUCC | -3.78 ± 0.4 | 0.00366 ± 0.21
39 | UAGGAGCAAUAUUACGAAAC | -3.33 ± 0.42 | -2.28 ± 0.5
40 | UAGGAGCAAUAUUACGAAAG | – | -1.17 ± 0.23
41 | UAGGAGCAAUAUUACGAAAU | -2.12 ± 0.28 | -2.31 ± 0.42
42 | UAGGAGCAAUAUUACGAAUU | -2.72 ± 0.3 | -2.22 ± 0.48
43 | UAGGAGCAAUAUUACGAGGU | – | -2.42 ± 0.32
44 | UAGGAGCAAUAUUACGAUGA | -2.75 ± 0.26 | -1.53 ± 0.21
45 | UAGGAGCAAUAUUACGCAGC | – | -2.79 ± 0.36
46 | UAGGAGCAAUAUUACGCAUA | -2.01 ± 0.19 | -1.78 ± 0.17
47 | UAGGAGCAAUAUUACGCGAG | -2.32 ± 0.16 | -0.56 ± 0.13
48 | UAGGAGCAAUAUUACGCUCC | – | -2.28 ± 0.25
49 | UAGGAGCAAUAUUACGCUUC | -2.64 ± 0.35 | –
50 | UAGGAGCAAUAUUACGGAUG | -3.62 ± 0.12 | -1.69 ± 0.11

Row | Sequence | self-splicing fitness (ln) (30 °C) | self-splicing fitness (ln) (37 °C)
51 | UAGGAGCAAUAUUACGGAUU | -3.92 ± 0.25 | -2.98 ± 0.38
52 | UAGGAGCAAUAUUACGGCAU | -4.07 ± 0.39 | -1.5 ± 0.25
53 | UAGGAGCAAUAUUACGGCUG | -0.891 ± 0.16 | 0.65 ± 0.2
54 | UAGGAGCAAUAUUACGUUCU | -3.31 ± 0.36 | -2.54 ± 0.27
55 | UAGUAGCAAUAUUACGAAAU | -2.89 ± 0.33 | –
56 | UAGUAGCAAUAUUACGAGAG | -3.43 ± 0.24 | -2.67 ± 0.18
57 | UAGUAGCAAUAUUACGAUUG | -0.0683 ± 0.084 | -0.0425 ± 0.12
58 | UAGUAGCAAUAUUACGCAGU | -2.65 ± 0.21 | -1.02 ± 0.14
59 | UAGUAGCAAUAUUACGCCAC | – | -1.56 ± 0.4
60 | UAGUAGCAAUAUUACGCGGG | -4.02 ± 0.34 | -2.49 ± 0.39
61 | UAGUAGCAAUAUUACGCUAU | -1.34 ± 0.21 | -1.16 ± 0.25
62 | UAGUAGCAAUAUUACGCUCC | -2.38 ± 0.45 | -0.239 ± 0.45
63 | UAGUAGCAAUAUUACGGAAA | – | -1.49 ± 0.3
64 | UAGUAGCAAUAUUACGGCCA | -1.22 ± 0.26 | 0.0405 ± 0.27
65 | UAGUAGCAAUAUUACGGCGC | -1.6 ± 0.46 | -1.4 ± 0.44
66 | UAGUAGCAAUAUUACGGGUC | -4.67 ± 0.46 | -2.97 ± 0.47
67 | UAGUAGCAAUAUUACGGGUU | -3.97 ± 0.27 | -2.66 ± 0.2
68 | UAGUAGCAAUAUUACGUACC | -2.29 ± 0.37 | -1.21 ± 0.27
69 | UAGUAGCAAUAUUACGUCCG | -0.377 ± 0.21 | -0.323 ± 0.36
70 | UAGUAGCAAUAUUACGUUGC | – | -1.53 ± 0.44
71 | UAUAAGCAAUAUUACGACAC | -1.87 ± 0.21 | -1.05 ± 0.26
72 | UAUAAGCAAUAUUACGACAU | -1.09 ± 0.014 | -0.413 ± 0.033
73 | UAUAAGCAAUAUUACGACUC | -1.51 ± 0.14 | -0.355 ± 0.14
74 | UAUAAGCAAUAUUACGCAAU | -2.11 ± 0.13 | -2.1 ± 0.15
75 | UAUAAGCAAUAUUACGCCUA | 0.213 ± 0.12 | 0.0424 ± 0.17

Row | Sequence | self-splicing fitness (ln) (30 °C) | self-splicing fitness (ln) (37 °C)
76 | UAUAAGCAAUAUUACGCCUU | -1.31 ± 0.1 | -0.179 ± 0.12
77 | UAUAAGCAAUAUUACGCGCU | -0.854 ± 0.18 | 0.225 ± 0.23
78 | UAUAAGCAAUAUUACGGACA | -0.702 ± 0.11 | 0.416 ± 0.13
79 | UAUAAGCAAUAUUACGGAUA | -0.466 ± 0.13 | -0.208 ± 0.13
80 | UAUAAGCAAUAUUACGGAUC | -2.57 ± 0.15 | -1.58 ± 0.18
81 | UAUAAGCAAUAUUACGUCCU | -1.28 ± 0.11 | 0.43 ± 0.14
82 | UAUAAGCAAUAUUACGUCGA | -1.56 ± 0.14 | -0.891 ± 0.16
83 | UAUAAGCAAUAUUACGUGGG | -2.83 ± 0.14 | -2.05 ± 0.12
84 | UAUCAGCAAUAUUACGAAAG | -1.62 ± 0.12 | -1.21 ± 0.17
85 | UAUCAGCAAUAUUACGAACC | -1.66 ± 0.24 | -0.148 ± 0.38
86 | UAUCAGCAAUAUUACGAACU | -1.2 ± 0.14 | 0.231 ± 0.13
87 | UAUCAGCAAUAUUACGAAGC | -3.75 ± 0.36 | -2.09 ± 0.31
88 | UAUCAGCAAUAUUACGAUAG | -0.799 ± 0.11 | 0.204 ± 0.15
89 | UAUCAGCAAUAUUACGCCAU | -1.73 ± 0.27 | -1.55 ± 0.28
90 | UAUCAGCAAUAUUACGCCGG | -0.251 ± 0.22 | 0.843 ± 0.26
91 | UAUCAGCAAUAUUACGCGCA | -0.571 ± 0.091 | 0.506 ± 0.11
92 | UAUCAGCAAUAUUACGCGCG | 0.181 ± 0.08 | -0.0803 ± 0.1
93 | UAUCAGCAAUAUUACGCGUG | -0.43 ± 0.062 | -0.319 ± 0.075
94 | UAUCAGCAAUAUUACGGCCU | -1.64 ± 0.1 | 0.0592 ± 0.12
95 | UAUCAGCAAUAUUACGGUAG | -1.26 ± 0.083 | 0.0233 ± 0.087
96 | UAUCAGCAAUAUUACGGUUU | -0.764 ± 0.062 | -0.507 ± 0.07
97 | UAUCAGCAAUAUUACGUACC | -2.13 ± 0.18 | -0.91 ± 0.21
98 | UAUCAGCAAUAUUACGUAUA | -0.696 ± 0.088 | -0.258 ± 0.1
